Consider two molecules from PMC4216189 (Biochemistry, 2014).

For this assay, the target named is T1, Escherichia coli lipoyl synthase, hexahistidine-tagged (Escherichia coli, UniProt P60716 1-321).
T1 sequence (looked up): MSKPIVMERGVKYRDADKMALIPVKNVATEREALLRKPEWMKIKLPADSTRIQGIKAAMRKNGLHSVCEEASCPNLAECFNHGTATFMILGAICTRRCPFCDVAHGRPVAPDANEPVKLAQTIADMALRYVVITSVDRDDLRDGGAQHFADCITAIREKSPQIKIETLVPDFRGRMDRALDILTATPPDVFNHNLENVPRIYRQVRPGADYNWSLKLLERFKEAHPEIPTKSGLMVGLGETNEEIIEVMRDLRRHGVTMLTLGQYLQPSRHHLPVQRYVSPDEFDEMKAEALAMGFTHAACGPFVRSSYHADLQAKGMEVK
In words: co-elution on anion-exchange chromatography.

B1: [8,8,8-2H3]-octanoyl-H protein of Escherichia coli (natural protein, UniProt P0A6T9 1-129, looked up)
chain: MSNVPAELKYSKEHEWLRKEADGTYTVGITEHAQELLGDMVFVDLPEVGATVSAGDDCAVAESVKAASDIYAPVSGEIVAVNDALSDSPELVNSEPYAGGWIFKIKASDESELESLLDATAYEALLEDE
modifications: N6-([8,8,8-2H3]-octanoyl)-lysine (position not given)
Consider B1, for which the binding result is “binds”.

B2: octanoyl-H protein of Escherichia coli (unlabeled) (natural protein, UniProt P0A6T9 1-129, looked up)
chain: MSNVPAELKYSKEHEWLRKEADGTYTVGITEHAQELLGDMVFVDLPEVGATVSAGDDCAVAESVKAASDIYAPVSGEIVAVNDALSDSPELVNSEPYAGGWIFKIKASDESELESLLDATAYEALLEDE
modifications: N6-octanoyl-lysine (position not given)
For B2, the binding result was “binds”.
